# Experimental data as given in paper PMC6786761.
# B1: D-6-hydroxynicotine oxidase (DHNO) (Paenarthrobacter nicotinovorans) (protein)
# chain: MSSKLATPLSIQGEVIYPDDSGFDAIANIWDGRHLQRPSLIARCLSAGDVAKSVRYACDNGLEISVRSGGHNPNGYATNDGGIVLDLRLMNSIHIDTAGSRARIGGGVISGDLVKEAAKFGLAAVTGMHPKVGFCGLALNGGVGFLTPKYGLASDNILGATLVTATGDVIYCSDDERPELFWAVRGAGPNFGVVTEVEVQLYELPRKMLAGFITWAPSVSELAGLLTSLLDALNEMADHIYPSVFVGVDENRAPSVTVCVGHLGGLDIAERDIARLRGLGRTVSDSIAVRSYDEVVALNAEVGSFEDGMSNLWIDREIAMPNARFAEAIAGNLDKFVSEPASGGSVKLEIEGMPFGNPKRTPARHRDAMGVLALAEWSGAAPGSEKYPELARELDAALLRAGVTTSGFGLLNNNSEVTAEMVAEVYKPEVYCRLAAVKREYDPENRFRHNYNIDPEGS
# Substrate: CN1CCC[C@@H]1c1cccnc1
# Experiment: oxygen electrode, initial rates
# Type: biochemical, Paenarthrobacter nicotinovorans
# Settings: 0.1 M Na-HEPES pH 8.0, 0.1 M NaCl, 25 °C, 250 μM O2, apparent
protein,measurement,value
B1,Km,840 ± 120 µM
